The results in this text go back to US20020156245A1 (Genentech, published 2002).

This experiment has as its target T1, human Ptch-2 (SEQ ID NO:2) (human, UniProt Q9Y6C5 1-1203).
T1 construct: Its length is printed as 1203 residues in some places and 1204 in others; also called hPtch-2; patched-2
T1 sequence: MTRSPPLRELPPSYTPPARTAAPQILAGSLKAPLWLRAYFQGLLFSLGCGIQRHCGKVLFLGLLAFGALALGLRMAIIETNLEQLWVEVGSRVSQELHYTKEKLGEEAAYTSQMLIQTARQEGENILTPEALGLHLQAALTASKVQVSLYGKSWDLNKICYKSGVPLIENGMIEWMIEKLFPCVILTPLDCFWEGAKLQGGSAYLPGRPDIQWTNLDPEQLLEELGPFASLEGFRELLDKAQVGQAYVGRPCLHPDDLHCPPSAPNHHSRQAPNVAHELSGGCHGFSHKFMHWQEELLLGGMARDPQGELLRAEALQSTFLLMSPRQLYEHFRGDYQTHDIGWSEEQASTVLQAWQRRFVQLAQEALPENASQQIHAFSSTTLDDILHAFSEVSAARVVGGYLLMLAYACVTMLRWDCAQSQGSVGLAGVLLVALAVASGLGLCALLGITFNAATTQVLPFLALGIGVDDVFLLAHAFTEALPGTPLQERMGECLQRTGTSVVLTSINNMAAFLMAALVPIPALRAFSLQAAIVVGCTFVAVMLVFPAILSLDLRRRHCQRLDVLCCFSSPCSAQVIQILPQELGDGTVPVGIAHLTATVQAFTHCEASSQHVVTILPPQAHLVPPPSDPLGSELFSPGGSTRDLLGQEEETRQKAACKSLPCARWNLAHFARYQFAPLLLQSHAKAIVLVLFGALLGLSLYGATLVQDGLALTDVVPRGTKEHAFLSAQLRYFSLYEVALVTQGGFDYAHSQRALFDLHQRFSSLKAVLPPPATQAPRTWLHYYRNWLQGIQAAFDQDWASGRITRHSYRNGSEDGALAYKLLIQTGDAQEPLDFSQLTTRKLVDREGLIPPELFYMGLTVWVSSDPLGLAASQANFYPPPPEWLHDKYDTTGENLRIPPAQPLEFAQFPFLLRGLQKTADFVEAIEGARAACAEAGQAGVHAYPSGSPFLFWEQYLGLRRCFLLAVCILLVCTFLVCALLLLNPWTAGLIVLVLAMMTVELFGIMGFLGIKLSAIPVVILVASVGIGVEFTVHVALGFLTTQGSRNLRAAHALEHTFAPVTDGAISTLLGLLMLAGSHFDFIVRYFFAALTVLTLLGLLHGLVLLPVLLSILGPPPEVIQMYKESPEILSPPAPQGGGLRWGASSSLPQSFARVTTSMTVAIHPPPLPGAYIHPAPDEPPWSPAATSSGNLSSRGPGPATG
Description: Scatchard analysis of displacement of 125I-Shh from 293 cells expressing Ptch-2. The procedure:
As shown on FIG. 7A, binding of ¹²⁵I-Shh can be competed with an excess of Shh, Dhh or Ihh (SEQ ID NOS: 14, 13, and 29, respectively).
To determine whether Ptch-2 is able to bind to the various hedgehog ligands, 293 cells were transfected with Ptch (SEQ ID NO:4) or Ptch-2 (SEQ ID NO:2) using standard procedures. Cells were incubated with 100 pM ¹²⁵I-Shh (19 kD amino terminal fragment of murine Shh (SEQ ID NO:14)) in the presence or absence of excess unlabeled Shh (SEQ ID NO:14) or Dhh (SEQ ID NO:13) for 2 h at room temperature. After equilibrium was reached, the ligand bound cells were centrifuged through a continuous sucrose gradient to separate unincorporated and then counted in a scintillation counter. […] Varying concentrations of cold competitor indicate that the 2 ligands have similar affinity for Ptch (SEQ ID NO:4) and Ptch-2 (SEQ ID NO:2).

B1: Dhh (SEQ ID NO:13) (ligand)
chain: not shown
notes: also called Desert Hh; Desert hedgehog
The molecule B1 came in with a Kd of 0.6 nM.

B2: Ihh (SEQ ID NO:29) (ligand)
chain: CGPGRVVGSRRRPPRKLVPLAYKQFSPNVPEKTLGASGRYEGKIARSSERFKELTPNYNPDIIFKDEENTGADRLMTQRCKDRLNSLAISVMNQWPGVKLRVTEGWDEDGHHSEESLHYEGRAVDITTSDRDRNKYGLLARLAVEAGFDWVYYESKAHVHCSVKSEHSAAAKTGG
notes: also called Indian Hh
Regarding B2, the affinity, expressed as Kd, was 0.4 nM. This Kd and that of the molecule before are within 1.5-fold of each other.

One may read the Kd as the constant that tells how readily two partners part at equilibrium. Low readings indicate higher affinity, high ones lower affinity.
